The source of these data is paper PMC11467669 (The Journal of Biological Chemistry, 2024).

Series [1] deals with mono-ubiquitin with an N-terminal fluorescein moiety (UniProt P0CG47 1-76, fluorescein on the N-terminus). In words: fluorescence polarisation. For orientation: Polarisation of emitted light reports the rotation of a fluorescent probe.
The series “SEC-MALLS” concerns the molecule itself. As to the kind of experiment: SEC-MALLS.

A word on the Kd: it is the equilibrium constant for the complex coming apart. By stoichiometry N is commonly meant the number of molecules, sites or subunits per partner or assembly.

B1: full-length USP8 (a.a. 7-1110), non-phosphorylated (enzyme)
chain: VPKELYLSSSLKDLNKKTEVKPEKISTKSYVHSALKIFKTAEECRLDRDEERAYVLYMKYVTVYNLIKKRPDFKQQQDYFHSILGPGNIKKAVEEAERLSESLKLRYEEAEVRKKLEEKDRQEEAQRLQQKRQETGREDGGTLAKGSLENVLDSKDKTQKSNGEKNEKCETKEKGAITAKELYTMMTDKNISLIIMDARRMQDYQDSCILHSLSVPEEAISPGVTASWIEAHLPDDSKDTWKKRGNVEYVVLLDWFSSAKDLQIGTTLRSLKDALFKWESKTVLRNEPLVLEGGYENWLLCYPQYTTNAKVTPPPRRQNEEVSISLDFTYPSLEESIPSKPAAQTPPASIEVDENIELISGQNERMGPLNISTPVEPVAASKSDVSPIIQPVPSIKNVPQIDRTKKPAVKLPEEHRIKSESTNHEQQSPQSGKVIPDRSTKPVVFSPTLMLTDEEKARIHAETALLMEKNKQEKELRERQQEEQKEKLRKEEQEQKAKKKQEAEENEITEKQQKAKEEMEKKESEQAKKEDKETSAKRGKEITGVKRQSKSEHETSDAKKSVEDRGKRCPTPEIQKKSTGDVPHTSVTGDSGSGKPFKIKGQPESGILRTGTFREDTDDTERNKAQREPLTRARSEEMGRIVPGLPSGWAKFLDPITGTFRYYHSPTNTVHMYPPEMAPSSAPPSTPPTHKAKPQIPAERDREPSKLKRSYSSPDITQAIQEEEKRKPTVTPTVNRENKPTCYPKAEISRLSASQIRNLNPVFGGSGPALTGLRNLGNTCYMNSILQCLCNAPHLADYFNRNCYQDDINRSNLLGHKGEVAEEFGIIMKALWTGQYRYISPKDFKITIGKINDQFAGYSQQDSQELLLFLMDGLHEDLNKADNRKRYKEENNDHLDDFKAAEHAWQKHKQLNESIIVALFQGQFKSTVQCLTCHKKSRTFEAFMYLSLPLASTSKCTLQDCLRLFSKEEKLTDNNRFYCSHCRARRDSLKKIEIWKLPPVLLVHLKRFSYDGRWKQKLQTSVDFPLENLDLSQYVIGPKNNLKKYNLFSVSNHYGGLDGGHYTAYCKNAARQRWFKFDDHEVSDISVSSVKSSAAYILFYTSLG
Consider B1, for which, in series [1], the Kd came to 1480 nM.

B2: 14-3-3γ (natural protein, UniProt P61981 1-247, looked up)
chain: MVDREQLVQKARLAEQAERYDDMAAAMKNVTELNEPLSNEERNLLSVAYKNVVGARRSSWRVISSIEQKTSADGNEKKIEMVRAYREKIEKELEAVCQDVLSLLDNYLIKNCSETQYESKVFYLKMKGDYYRYLAEVATGEKRATVVESSEKAYSEAHEISKEHMQPTHPIRLGLALNYSVFYYEIQNAPEQACHLAKTAFDDAIAELDTLNEDSYKDSTLIMQLLRDNLTLWTSDQQDDDGGEGNN
Regarding B2, in the series “SEC-MALLS”, the “stoichiometry N” value was 2.

B3: USP8 Δ686–757 (FL USP8, a.a. 7-1110, entire WW-CD linker deleted) (enzyme)
chain: VPKELYLSSSLKDLNKKTEVKPEKISTKSYVHSALKIFKTAEECRLDRDEERAYVLYMKYVTVYNLIKKRPDFKQQQDYFHSILGPGNIKKAVEEAERLSESLKLRYEEAEVRKKLEEKDRQEEAQRLQQKRQETGREDGGTLAKGSLENVLDSKDKTQKSNGEKNEKCETKEKGAITAKELYTMMTDKNISLIIMDARRMQDYQDSCILHSLSVPEEAISPGVTASWIEAHLPDDSKDTWKKRGNVEYVVLLDWFSSAKDLQIGTTLRSLKDALFKWESKTVLRNEPLVLEGGYENWLLCYPQYTTNAKVTPPPRRQNEEVSISLDFTYPSLEESIPSKPAAQTPPASIEVDENIELISGQNERMGPLNISTPVEPVAASKSDVSPIIQPVPSIKNVPQIDRTKKPAVKLPEEHRIKSESTNHEQQSPQSGKVIPDRSTKPVVFSPTLMLTDEEKARIHAETALLMEKNKQEKELRERQQEEQKEKLRKEEQEQKAKKKQEAEENEITEKQQKAKEEMEKKESEQAKKEDKETSAKRGKEITGVKRQSKSEHETSDAKKSVEDRGKRCPTPEIQKKSTGDVPHTSVTGDSGSGKPFKIKGQPESGILRTGTFREDTDDTERNKAQREPLTRARSEEMGRIVPGLPSGWAKFLDPITGTFRYYHSPTNTVHMYPPEMAPSASQIRNLNPVFGGSGPALTGLRNLGNTCYMNSILQCLCNAPHLADYFNRNCYQDDINRSNLLGHKGEVAEEFGIIMKALWTGQYRYISPKDFKITIGKINDQFAGYSQQDSQELLLFLMDGLHEDLNKADNRKRYKEENNDHLDDFKAAEHAWQKHKQLNESIIVALFQGQFKSTVQCLTCHKKSRTFEAFMYLSLPLASTSKCTLQDCLRLFSKEEKLTDNNRFYCSHCRARRDSLKKIEIWKLPPVLLVHLKRFSYDGRWKQKLQTSVDFPLENLDLSQYVIGPKNNLKKYNLFSVSNHYGGLDGGHYTAYCKNAARQRWFKFDDHEVSDISVSSVKSSAAYILFYTSLG
As to B3, the dissociation constant Kd in series [1] was found to be 367 nM.

B4: USP8 ΔWW (WW domain-deleted mutant of FL USP8, a.a. 7-1110) (enzyme)
chain: VPKELYLSSSLKDLNKKTEVKPEKISTKSYVHSALKIFKTAEECRLDRDEERAYVLYMKYVTVYNLIKKRPDFKQQQDYFHSILGPGNIKKAVEEAERLSESLKLRYEEAEVRKKLEEKDRQEEAQRLQQKRQETGREDGGTLAKGSLENVLDSKDKTQKSNGEKNEKCETKEKGAITAKELYTMMTDKNISLIIMDARRMQDYQDSCILHSLSVPEEAISPGVTASWIEAHLPDDSKDTWKKRGNVEYVVLLDWFSSAKDLQIGTTLRSLKDALFKWESKTVLRNEPLVLEGGYENWLLCYPQYTTNAKVTPPPRRQNEEVSISLDFTYPSLEESIPSKPAAQTPPASIEVDENIELISGQNERMGPLNISTPVEPVAASKSDVSPIIQPVPSIKNVPQIDRTKKPAVKLPEEHRIKSESTNHEQQSPQSGKVIPDRSTKPVVFSPTLMLTDEEKARIHAETALLMEKNKQEKELRERQQEEQKEKLRKEEQEQKAKKKQEAEENEITEKQQKAKEEMEKKESEQAKKEDKETSAKRGKEITGVKRQSKSEHETSDAKKSVEDRGKRCPTPEIQKKSTGDVPHTSVTGDSGSGKPFKIKGQPESGILRTGTFREDTDDTERNKAQREPLTRARSEEMSSAPPSTPPTHKAKPQIPAERDREPSKLKRSYSSPDITQAIQEEEKRKPTVTPTVNRENKPTCYPKAEISRLSASQIRNLNPVFGGSGPALTGLRNLGNTCYMNSILQCLCNAPHLADYFNRNCYQDDINRSNLLGHKGEVAEEFGIIMKALWTGQYRYISPKDFKITIGKINDQFAGYSQQDSQELLLFLMDGLHEDLNKADNRKRYKEENNDHLDDFKAAEHAWQKHKQLNESIIVALFQGQFKSTVQCLTCHKKSRTFEAFMYLSLPLASTSKCTLQDCLRLFSKEEKLTDNNRFYCSHCRARRDSLKKIEIWKLPPVLLVHLKRFSYDGRWKQKLQTSVDFPLENLDLSQYVIGPKNNLKKYNLFSVSNHYGGLDGGHYTAYCKNAARQRWFKFDDHEVSDISVSSVKSSAAYILFYTSLG
B4 came in with a Kd in series [1] of 290 nM.
